# Laboratory results taken from article doi:10.1101/2024.01.30.575082 (bioRxiv, 2024).
# B1: Shethna Protein II (FeSII) from Azotobacter vinelandii (natural protein, UniProt Q44501 1-122, looked up)
# chain: MATIYFSSPLMPHNKKVQAVAGKRSTLLGVAQENGVKIPFECQDGNCGSCLVKITHLDGERIKGMLLTDKERNVLKSVGKLPKSEEERAAVRDLPPTYRLACQTIVTDEDLLVEFTGEPGGA
# Target: the molecule itself
# Assay: crystal structure
protein,measurement,value
B1,binding result,binds
